Here are results for one molecule from patent US20180344813A1, “ENGINEERED POLYPEPTIDES HAVING ENHANCED DURATION OF ACTION WITH REDUCED IMMUNOGENICITY” (priority 2016, published 2018).

One assay relates to NIH/Swiss mice. The assay is described as follows: OGTT DOA (oral glucose tolerance test duration of action). Format: in vivo, mouse. As to conditions: NIH/Swiss mice; drug given 24 hours before OGTT.
A further assay addresses T1, GLP-1 receptor (Rattus norvegicus, UniProt P32301).
T1 construct: functional activity was determined using cells that endogenously express GLP-1R; endogenous in cells; host or cells: rat thyroid carcinoma 6-23 (clone 6) cells
T1 sequence (P32301 22-463): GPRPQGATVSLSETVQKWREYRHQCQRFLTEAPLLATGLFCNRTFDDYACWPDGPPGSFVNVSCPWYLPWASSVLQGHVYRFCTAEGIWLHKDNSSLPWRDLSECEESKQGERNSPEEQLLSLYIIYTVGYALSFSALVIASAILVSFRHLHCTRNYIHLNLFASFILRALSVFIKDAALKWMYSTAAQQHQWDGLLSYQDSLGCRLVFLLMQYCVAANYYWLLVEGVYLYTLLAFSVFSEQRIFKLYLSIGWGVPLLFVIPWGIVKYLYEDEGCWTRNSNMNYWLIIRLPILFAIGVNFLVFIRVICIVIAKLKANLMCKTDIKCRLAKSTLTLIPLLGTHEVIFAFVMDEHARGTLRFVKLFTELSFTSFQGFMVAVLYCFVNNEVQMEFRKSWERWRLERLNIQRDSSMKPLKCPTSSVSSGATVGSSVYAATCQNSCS
The assay is described as follows: GLP-1 receptor functional assay: cAMP induction (HTRF) in rat thyroid carcinoma 6-23 (clone 6) cells. Format: cell-based. (In general: Time-resolved FRET reads energy transfer from a long-lived donor to a nearby acceptor.)

Protocol for NIH/Swiss mice: For example, duration can be performed using an oral glucose tolerance test (OGTT) in which the drug is administered to the subject at a desired time point before the glucose is administered orally(to measure drug duration of action; OGTT DOA) and glucose blood levels are measured (e.g. readily done in mice).
Drug was administered to 4-hr fasted NIH/Swiss mice. […] Blood glucose was measured with a OneTouch® Ultra® (LifeScan, Inc., a Johnson & Johnson Company, Milpitas, Calif.). *p<0.05 vs. vehicle control; ANOVA, Dunnett's test. Glucose lowering as percent lowering compared to vehicle is given (negative value indicates lowering of glucose) at 30 minutes post gavage.

B1: HGEGTFTSDLSKQLEEEAVRLFIEWLKNTGGGGSASGSLAEAKEAANAELDSYGVS DFYKRLIDKAKTVEGVEALKDAILAALP (protein)
chain: HGEGTFTSDLSKQLEEEAVRLFIEWLKNTGGGGSASGSLAEAKEAANAELDSYGVSDFYKRLIDKAKTVEGVEALKDAILAALP
As to B1, the “activity in OGTT DOA when dosed at t-24 hours” value with NIH/Swiss mice is reported as “did not display 24 duration”. In addition, in the assay with GLP-1 receptor, the “in vitro activity against the GLP-1 receptor” value is reported as “active in vitro against the GLP-1 receptor”.
